In publication PMC2582960, “A Structural Model of the Staphylococcus aureus ClfA–Fibrinogen Interaction Opens New Avenues for the Design of Anti-Staphylococcal Therapeutics” (PLoS Pathogens, 2008) one finds response (Absorbance (405 nm)) data, which are given here for 16 variants.

B1: unnamed (parent)
chain 1: GEGQQHHLGGAKQAGDV
chain 2: GTDITNQLTNVTVGIDSGTTVYPHQAGYVKLNYGFSVPNSAVKGDTFKITVPKELNLNGVTSTAKVPPIMAGDQVLANGVIDSDGNVIYTFTDYVNTKDDVKATLTMPAYIDPENVKKTGNVTLATGIGSTTANKTVLVDYEKYGKFYNLSIKGTIDQIDKTNNTYRQTIYVNPSGDNVIAPVLTGNLKPNTDSNALIDQQNTSIKVYKVDNAADLSESYFVNPENFEDVTNSVNITFPNPNQYKVEFNTPDDQITTPYIVVVNGHIDPNSKGDLALRSTLYGYNSNIIWRSMSWDNEVAFNNGSGSGDGIDKPVVP

Variants of B1 are the subject of this assay. Description: solid-phase competition (inhibition) assay. Conditions: with partner chain of the complex shown;; read off a plot.
As to chain 1 G9A, the response (Absorbance (405 nm)) was found to be 0.21.
In the case of chain 1 G10A it was 0.25; in that of chain 1 V17A, 0.13.
On to chain 1 G15A, for which the response (Absorbance (405 nm)) is 0.28.
With chain 1 E2A the figure was 0.21; with chain 1 H7A, 0.28; with chain 1 L8A, 0.15.
In the case of chain 1 K12A it was 0.23.
In the case of chain 1 G3A it was 0.2.
Regarding chain 1 H6A, the response (Absorbance (405 nm)) worked out at 0.31.
With chain 1 A11S the figure was 0.11; with chain 1 G1A, 0.25.
With chain 1 A14S the figure was 0.29.
With chain 1 Q4A the figure was 0.2; with chain 1 Q5A, 0.23; with chain 1 Q13A, 0.29.
